Data from US20210308211A1, “METHOD OF TREATING VIRAL INFECTIONS” (priority 2020, published 2021).
Non-standard residues stand in square brackets, D forms with d. Residues, ends and D or L forms follow the SMILES beside them. No end group written: not given here. Met(O) = CS(=O)CC[C@H](N)C(=O)O; pS = N[C@@H](COP(=O)(O)O)C(=O)O

B1: P140 peptide (SEQ ID NO: 1 in which serine at position 10 is phosphorylated; SEQ ID NO: 4) (peptide)
peptide: RIHMVYSKR[pS]GKPRGYAFIEY
B2: P140(MO) (SEQ ID NO: 1 with phosphoserine at position 10 and oxidized methionine at position 4; SEQ ID NO: 6) (peptide)
peptide: RIH[Met(O)]VYSKR[pS]GKPRGYAFIEY

Tests used:
MRL/lpr mice [1] = assay: Survival analysis in MRL/lpr lupus mice; format: in vivo, mouse; conditions: female MRL/lpr mice, intravenous, 20 mice per group; NaCl control 25 weeks
Method: It has been determined that this mouse strain carries a mutation in the fas gene. Also, the MRL/lpr is a useful model to study behavioural and cognitive deficits found in autoimmune diseases and the efficacy of immunosuppressive agents [Monneaux et al., 2003, Eur. J. Immunol. 33, 287-296].
Five-week-old female MRL/lpr mice received P140 or peptide P140(MO) intravenously as described (Monneaux et al., 2003, Eur. J. Immunol. 33, 287-296). All experimental protocols were carried out with the approval of the local Institutional Animal Care and Use Committee (CREMEAS). As control, mice were injected with NaCl.
Twenty mice were used for each peptide or NaCl.
Statistical tests were performed using GraphPad Prism version 5.0. The two-way ANOVA test was used to analyze statistical significance of proteinuria differences between control and peptide-treated groups of mice. Survival of control and P140 analogue-treated female MRL/lpr mice was analyzed by the Kaplan-Meier method, and the significance of differences was determined by the log-rank test. For the other variables, statistical significance was assessed using the Student's t-test. p values less than 0.05 were considered significant.

MRL/lpr mice [2] = assay: Proteinuria analysis in MRL/lpr mice (Albustix); format: in vivo, mouse; conditions: compared to the untreated mice
Method: Proteinuria of the above mice was measured in fresh urine using Albustix (Bayer Diagnostics) and was semi-quantitatively estimated according to a […] recommended by the manufacturer (no proteinuria=0; traces=1; 1+=2; 2+=3; 3+=4; 4+=5).

MRL/lpr mice [3] = assay: Cellularity analysis of peripheral blood in MRL/lpr mice; format: in vivo, mouse; conditions: 100 μg/100 μL single injection, 5 days after
Method: MRL/lpr mice were injected with 100 μg/100 μL of P140 or P140(MO) and cellularity (preipheral blood) was studied 5 days after this unique injection. The count includes all the leucocytes. In view of the low number of tested mice, a non parametric statistical test has been realised Mann-Whitney).

HSC70 protein = target: T1, HSC70 protein (Bos taurus, UniProt P19120); assay: BIAcore binding of peptides to immobilized HSC70; parameters: species or system bovine
T1 construct: purchased Stressgen
T1 sequence (P19120 whole entry): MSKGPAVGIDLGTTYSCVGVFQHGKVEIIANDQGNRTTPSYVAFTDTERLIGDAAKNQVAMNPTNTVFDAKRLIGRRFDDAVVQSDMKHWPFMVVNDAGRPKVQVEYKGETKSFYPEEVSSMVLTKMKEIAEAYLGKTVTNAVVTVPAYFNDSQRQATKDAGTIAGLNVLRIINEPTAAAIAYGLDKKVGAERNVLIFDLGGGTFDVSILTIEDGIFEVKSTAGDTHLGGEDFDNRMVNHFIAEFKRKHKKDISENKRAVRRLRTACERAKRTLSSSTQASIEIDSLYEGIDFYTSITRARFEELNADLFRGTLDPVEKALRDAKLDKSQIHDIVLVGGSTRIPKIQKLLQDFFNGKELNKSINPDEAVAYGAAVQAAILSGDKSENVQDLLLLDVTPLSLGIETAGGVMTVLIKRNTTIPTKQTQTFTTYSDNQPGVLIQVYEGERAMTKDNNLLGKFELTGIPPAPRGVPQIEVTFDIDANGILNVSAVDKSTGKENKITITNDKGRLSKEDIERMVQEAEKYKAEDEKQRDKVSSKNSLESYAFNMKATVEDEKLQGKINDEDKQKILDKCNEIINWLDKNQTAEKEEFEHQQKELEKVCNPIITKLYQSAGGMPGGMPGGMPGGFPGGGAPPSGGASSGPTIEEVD
Method: BIAcore 3000 system (Biacore AB) was used to evaluate the binding of P140 peptides to HSC70 protein (Page et al., 2009, and 2011). Sensor chip CM5, surfactant P20, amine coupling kit containing N-hydroxysuccinimide (NHS) and N-ethyl-N′-dimethylaminopropyl carbodiimide (EDC), 2-(2-pyridinyldithio)ethaneamine (PDEA) and ethanolamine were from Biacore AB. Biosensor assays were performed with HBS-EP buffer as running buffer (10 mM HEPES, 150 mM NaCl, 3 mM EDTA, 0.005% surfactant P20, pH 7.4). The compounds were diluted in the running buffer. The sensor chip surface was regenerated after each experiment by injecting 10 μL of 10 mM HCl. Recombinant bovine HSC70 (Stressgen) was immobilized on flow cells of a CM5 sensor chip through its thiol groups using 35 μL PDEA in 50 mM borate buffer, pH 8.3 on the NHS/EDC-activated matrix. Then, 35 μL of HSC70 (100 μg/mL in formate buffer, pH 4.3) were injected until a response of 13,000 response units (RU) corresponding to 13 ng/mm^2 of HSC70 was immobilized. Twenty μL of a 50 mM cysteine/1 M NaCl solution was used to saturate unoccupied sites on the chip. The direct binding measurement of P140 peptides to HSC70 was carried out at 25° C. with a constant flow rate of 20 μL/min. P140 peptide and analogues were injected in the flux at different concentrations for 3 min, followed by a dissociation phase of 3 min. The kinetic parameters were calculated using the BIAeval 3.1 software on a personal computer. Analysis was performed using the simple 1:1 Langmuir binding model. The specific binding profiles were obtained after subtracting the response signal from the control empty channel and from blank-buffer injection. The fitting to each model was judged by the χ^2 value and randomness of residue distribution compared to the theoretical model.

[4] = target: Recombinant bovine HSC70 (Stressgen) (bovine) (UniProt P19120); assay: SPR, BIAcore 3000; HSC70 immobilised, peptide injected at 25 µM; 1:1 Langmuir fit
Recombinant bovine HSC70 (Stressgen) (bovine), sequence (P19120 whole entry): as above

[5] = target: Recombinant bovine HSC70 (Stressgen) (bovine) (UniProt P19120); assay: SPR, BIAcore 3000; HSC70 immobilised, peptide injected at 12.5 µM; 1:1 Langmuir fit
[6] = target: Recombinant bovine HSC70 (Stressgen) (bovine) (UniProt P19120); assay: SPR, BIAcore 3000; HSC70 immobilised, peptide injected at 3.12 µM; 1:1 Langmuir fit
[7] = target: Recombinant bovine HSC70 (Stressgen) (bovine) (UniProt P19120); assay: SPR, BIAcore 3000; HSC70 immobilised, peptide injected at 6.25 µM; 1:1 Langmuir fit
[8] = target: Recombinant bovine HSC70 (Stressgen) (bovine) (UniProt P19120); assay: SPR, BIAcore 3000; HSC70 immobilised, peptide injected at 1.56 µM; 1:1 Langmuir fit
[9] = target: Recombinant bovine HSC70 (Stressgen) (bovine) (UniProt P19120); assay: SPR, BIAcore 3000; HSC70 immobilised, peptide injected; 1:1 Langmuir fit; row for analyte at 25 µM
[10] = target: Recombinant bovine HSC70 (Stressgen) (bovine) (UniProt P19120); assay: SPR, BIAcore 3000; HSC70 immobilised, peptide injected; 1:1 Langmuir fit; row for analyte at 1.56 µM
[11] = target: Recombinant bovine HSC70 (Stressgen) (bovine) (UniProt P19120); assay: SPR, BIAcore 3000; HSC70 immobilised, peptide injected; 1:1 Langmuir fit; row for analyte at 12.5 µM
[12] = target: Recombinant bovine HSC70 (Stressgen) (bovine) (UniProt P19120); assay: SPR, BIAcore 3000; HSC70 immobilised, peptide injected; 1:1 Langmuir fit; row for analyte at 3.12 µM
[13] = target: Recombinant bovine HSC70 (Stressgen) (bovine) (UniProt P19120); assay: SPR, BIAcore 3000; HSC70 immobilised, peptide injected; 1:1 Langmuir fit; row for analyte at 6.25 µM

Row | Molecule | Req [4] | kobs [4] | Req [5] | kobs [5] | Req [6] | kobs [6] | Req [7] | kobs [7] | Req [8] | kobs [8] | Ka [9] | Kd [9] | koff [9] | Ka [10] | Kd [10] | koff [10] | Ka [11] | Kd [11] | koff [11] | Ka [12] | other results
1 | CC[C@H](C)[C@H](NC(=O)[C@H](Cc1ccccc1)NC(=O)[C@H](C)NC(=O)[C@H](Cc1ccc(O)cc1)NC(=O)CNC(=O)[C@H](CCCNC(=N)N)NC(=O)[C@@H]1CCCN1C(=O)[C@H](CCCCN)NC(=O)CNC(=O)[C@H](COP(=O)(O)O)NC(=O)[C@H](CCCNC(=N)N)NC(=O)[C@H](CCCCN)NC(=O)[C@H](CO)NC(=O)[C@H](Cc1ccc(O)cc1)NC(=O)[C@@H](NC(=O)[C@H](CC[S+](C)[O-])NC(=O)[C@H](Cc1c[nH]cn1)NC(=O)[C@@H](NC(=O)[C@@H](N)CCCNC(=N)N)[C@@H](C)CC)C(C)C)C(=O)N[C@@H](CCC(=O)O)C(=O)N[C@@H](Cc1ccc(O)cc1)C(=O)O (stereo partly drawn) [P140(MO), RIHM(O)VYSKRS(PO3H2)GKPRGYAFIEY] (H-RIH[Met(O)]VYSKR[pS]GKPRGYAFIEY-OH) | – | – | – | – | – | – | – | – | – | – | – | – | – | – | – | – | – | – | – | – | Median survival (MRL/lpr mice [1]): > 40 weeks; Proteinuria (MRL/lpr mice [2]): less important and appears lately; Peripheral hypercellularity (MRL/lpr mice [3]): decrease peripheral hypercellularity; Rmax (RU) (HSC70 protein; 25° C., 1:1 Langmuir model): 39 RU; kon (HSC70 protein; 25° C., 1:1 Langmuir model, analyte 1.56-25 μM, read-out: ka): 1150 M⁻¹ s⁻¹; Affinity for HSC70, oxidized vs non-oxidized peptide (in words) (HSC70 protein; P140 compared with P140 M(O)): not statistically different; Req (RU) (HSC70 protein; peptide 1.56 μM): 17.6 RU; Req (RU) (HSC70 protein; peptide 3.12 μM): 24.2 RU; Req (RU) (HSC70 protein; peptide 6.25 μM): 29.9 RU; Req (RU) (HSC70 protein; peptide 12.5 μM): 33.9 RU; kobs (HSC70 protein; peptide 12.5 μM): 0.0166 s⁻¹; Req (RU) (HSC70 protein; peptide 25 μM): 36.3 RU; kobs (HSC70 protein; peptide 25 μM): 0.031 s⁻¹
2 | B1 | 65.2 RU | 0.0144 s⁻¹ | 53.6 RU | 0.00874 s⁻¹ | 25.8 RU | 0.00452 s⁻¹ | 39.5 RU | 0.00593 s⁻¹ | 15.3 RU | 0.00382 s⁻¹ | 144000 M⁻¹ | 6.94 µM | 0.00312 s⁻¹ | 144000 M⁻¹ | 6.94 µM | 0.00312 s⁻¹ | 144000 M⁻¹ | 6.94 µM | 0.00312 s⁻¹ | 144000 M⁻¹ | Kd [12]: 6.94 µM; koff [12]: 0.00312 s⁻¹; Ka [13]: 144000 M⁻¹; Kd [13]: 6.94 µM; koff [13]: 0.00312 s⁻¹
3 | B2 | 36.3 RU | 0.031 s⁻¹ | 33.9 RU | 0.0166 s⁻¹ | 24.2 RU | 0.0058 s⁻¹ | 29.9 RU | 0.0094 s⁻¹ | 17.6 RU | 0.004 s⁻¹ | 524000 M⁻¹ | 1.91 µM | 0.0022 s⁻¹ | 524000 M⁻¹ | 1.91 µM | 0.0022 s⁻¹ | 524000 M⁻¹ | 1.91 µM | 0.0022 s⁻¹ | 524000 M⁻¹ | Kd [12]: 1.91 µM; koff [12]: 0.0022 s⁻¹; Ka [13]: 524000 M⁻¹; Kd [13]: 1.91 µM; koff [13]: 0.0022 s⁻¹
